Results on two molecules are retold here after paper PMC4199913 (The FEBS journal, 2014).

Data set [1] has as its target MaTrx2 (Methanosarcina acetivorans, UniProt Q8TL30). The experiment in a line: turbidimetric insulin reduction, […] nm. Format: biochemical. The settings on record: 0.33 mM DTT, 0.13 mM insulin, 100 mM KPO4 pH 6.8, anaerobic.
For data set [2], the target named is MaTrx7 (Methanosarcina acetivorans, UniProt Q8TR15). The experiment in a line: turbidimetric insulin reduction, […] nm. The settings on record: 0.33 mM DTT, 0.13 mM insulin, 100 mM KPO4 pH 6.8, anaerobic. Format: biochemical.
Data set [3] addresses MaTrx6Δsp (Methanosarcina acetivorans, UniProt Q8TIA1). The experiment in a line: turbidimetric insulin reduction, […] nm. Format: biochemical. The settings on record: 0.33 mM DTT, 0.13 mM insulin, 100 mM KPO4 pH 6.8, anaerobic.
Substrate in data set [4]: NC(=O)C1=CN([C@@H]2O[C@H](COP(=O)(O)OP(=O)(O)OC[C@H]3O[C@@H](n4cnc5c(N)ncnc54)[C@H](OP(=O)(O)O)[C@@H]3O)[C@@H](O)[C@H]2O)C=CC1
The experiment in a line: purified protein. Format: biochemical, Methanosarcina acetivorans. The settings on record: 1 mM DTNB, 0.5 µM MaTrxR, 50 mM Tris-HCl 150 mM NaCl pH 7.2, anaerobic.

Substrate in data set [5]: NC(=O)C1=CN([C@@H]2O[C@H](COP(=O)(O)OP(=O)(O)OC[C@H]3O[C@@H](n4cnc5c(N)ncnc54)[C@H](O)[C@@H]3O)[C@@H](O)[C@H]2O)C=CC1
The experiment in a line: purified protein. Format: biochemical, Methanosarcina acetivorans. To be noted: 1 mM DTNB, 0.5 µM MaTrxR, 50 mM Tris-HCl 150 mM NaCl pH 7.2, anaerobic.

On to `OC(CS)C(O)CS` (stereo not drawn) [DTT], for which the “turbidimetric insulin reduction, 650 nm” value in data set [1] is “All three purified MaTrxs exhibited both DTT- and lipoamide-dependent insulin reduction activity”; in data set [2], “All three purified MaTrxs exhibited both DTT- and lipoamide-dependent insulin reduction activity”; in data set [3], “All three purified MaTrxs exhibited both DTT- and lipoamide-dependent insulin reduction activity”.

B1: MaTrxR (Methanosarcina acetivorans C2A) (protein)
chain: MNSFLFSGGNMYDLIIIGGGPAGLAAGIYAVRFGLDTLVLEKSEISGQISMSDIVENYPGFPSISGLELMEKYRTHAQEVGVKTKITEVLSVRTEGAKKIVSTDSGDLEAKTLIIATGANPKHLGVPGEKEFISKGVSYCAICDGPFFKNKTVVVVGGGNSAVTDALLLSKVAQNVYLIHRRDRLKAAKVLQDRALATPNIEFILNTLVQEIAGSREGVKKVEKVILQDLNSKESRELSTNGVFIYVGIQPNTEFVNVEKNNEGFIITNRWMETSEKGIYAAGDCRDTPIWQLVAAVRDGAIAATAANEYIESLK
As for B1, in data set [4], the Km (commonly the substrate concentration at which the rate is half of its maximum) was determined as 6.3 ± 0.5 µM; the kcat (in general, the maximal rate divided by the concentration of active sites) came to 0.65 s⁻¹; the kcat/Km (commonly the turnover number divided by the Michaelis constant) worked out at 103000 M⁻¹ s⁻¹. In data set [5], the Km worked out at 736 ± 57 µM, the kcat amounted to 0.817 s⁻¹ and the kcat/Km was found to be 1120 M⁻¹ s⁻¹.
